We go through one protein from article PMC3458034, “Structure and Flexibility of the C-Ring in the Electromotor of Rotary FoF1-ATPase of Pea Chloroplasts” (PLoS ONE, 2012).

This data set concerns the molecule itself. As to the kind of experiment: crystal structure; c-ring from a native preparation in detergent; crystals grown in 100 mM Na-acetate pH 4.5, 50 mM MgCl2, 50 mM NaCl, 10 mM yttrium chloride, 14-24% PEG 550 MME; 3.4 Å.

B1: chloroplast ATP synthase subunit-c of the green pea (Pisum sativum), as the c-ring (natural protein, UniProt P08212 1-81, looked up)
chain: MNPLIAAASVIAAGLAVGLASIGPGVGQGTAAGQAVEGIARQPEAEDKIRGTLLLSLAFMEALTIYGLVVALALLFANPFV
notes: ATP synthase (CFoCF1) subunit c of the chloroplast, Pisum sativum; each monomer is printed as an 81-residue hairpin-shaped polypeptide (TM1 residues 4-41, loop 42-45, TM2 46-75); Native preparation, no tags; Homo-tetradecameric ring in the crystal; also called c-subunit; c14; source: purified from thylakoid membranes of P. sativum var; Alaska young leaves (DDM, PEG precipitation, sucrose …)
The stoichiometry N is the number of molecules, sites or subunits per partner or assembly. On to B1, for which the “stoichiometry N” value was determined as 14.
